Patent publication US20020160496A1 (DUKE UNIVERSITY, published 2002)

Biological target: the molecule itself
Assay: blue native PAGE (BN-PAGE) of native, heat shocked and bis-ANS treated GRP94; self-association

B1: GRP94 (glucose regulated protein of 94 kDa) purified from porcine pancreas (other, UniProt Q29092 22-804, looked up)
chain: EDEVDVDGTVEEDLGKSREGSRTDDEVVQREEEAIQLDGLNASQIRELREKSEKFAFQAEVNRMMKLIINSLYKNKEIFLRELISNASDALDKIRLISLTDENALAGNEELTVKIKCDKEKNLLHVTDTGVGMTREELVKNLGTIAKSGTSEFLNKMAEAQEDGQSTSELIGQFGVGFYSAFLVADKVIVTSKHNNDTQHIWESDSNEFSVIADPRGNTLGRGTTITLVLKEEASDYLELDTIKNLVKKYSQFINFPIYVWSSKTETVEEPMEEEEAAKEEKEESDDEAAVEEEEEEKKPKTKKVEKTVWDWELMNDIKPIWQRPSKEVEDDEYKAFYKSFSKESDDPMAYIHFTAEGEVTFKSILFVPTSAPRGLFDEYGSKKSDYIKLYVRRVFITDDFHDMMPKYLNFVKGVVDSDDLPLNVSRETLQQHKLLKVIRKKLVRKTLDMIKKIADEKYNDTFWKEFGTNIKLGVIEDHSNRTRLAKLLRFQSSHHPSDITSLDQYVERMKEKQDKIYFMAGSSRKEAESSPFVERLLKKGYEVIYLTEPVDEYCIQALPEFDGKRFQNVAKEGVKFDESEKSKENREAVEKEFEPLLNWMKDKALKDKIEKAVVSQRLTESPCALVASQYGWSGNMERIMKAQAYQTGKDISTNYYASQKKTFEINPRHPLIRDMLRRVKEDEDDKTVSDLAVVLFETATLRSGYLLPDTKAYGDRIERMLRLSLNIDPDAKVEEEPEEEPEETTEDTTEDTEQDDDEEMDAGADEEEQETSETSTAEKDEL
notes: also called gp96; ERp99
- binding result: binds
